Assay results from publication PMC4007455.

Assays:
[1] = target: RNA polymerase II in isolated early elongation complexes (human (endogenous in HeLa)) (UniProt P24928)
[2] = target: RNA polymerase II in isolated early elongation complexes (human (endogenous in HeLa)) (UniProt P24928); remark: listed apart in the source

**Q.** “Gdown1 ΔLPDKG deletion mutant (from UniProt P0CAP2-1 1-368) (natural protein)” was tested. Which block of TFIIF (0.1 pmol)-dependent runoff by 1 pmol ΔLPDKG mutant, in vitro transcription on isolated EECs, 7-min chase (blocks TFIIF acting on Pol II) [1] did it give?
**A.** Its block of TFIIF (0.1 pmol)-dependent runoff by 1 pmol ΔLPDKG mutant, in vitro transcription on isolated EECs, 7-min chase (blocks TFIIF acting on Pol II) is 90%.

**Q.** What about the termination region as percent of total counts with TTF2 (0.04 pmol) and 1 pmol ΔLPDKG mutant (72% with TTF2 alone), in vitro transcription on isolated EECs (blocks TTF2 acting on Pol II) (% of the total counts) [1] of the same substance?
**A.** Its termination region as percent of total counts with TTF2 (0.04 pmol) and 1 pmol ΔLPDKG mutant (72% with TTF2 alone), in vitro transcription on isolated EECs (blocks TTF2 acting on Pol II) (% of the total counts) is 50.

**Q.** How did the amount of Gdown1 CTD titrated onto EECs that completely blocks elongation stimulation by 0.1 pmol TFIIF, in vitro transcription, 7-min chase [2] turn out when “Gdown1 CTD(197–368) (from UniProt P0CAP2-1 197-368) (domain or fragment)” was run?
**A.** The amount of Gdown1 CTD titrated onto EECs that completely blocks elongation stimulation by 0.1 pmol TFIIF, in vitro transcription, 7-min chase was 20 pmol.
